This note sets out measurements from patent US20220090005A1, “Supplemented Serum-Containing Culture Medium for Enhanced Arpe-19 Growth and Human Cytomegalovirus Vaccine Production” (priority 2019, published 2022).

This assay concerns ARPE-19 cells. Briefly: Screening of individual supplements on ARPE-19 cell growth, 96-well plate, Hoechst nuclear stain. Type of assay: cell-based, human. The conditions noted are these: components with p-value of <0.05; DMEM/F12 2% FBS, days 2-8 post plant, FIG. 1.

B1: EGF: Epidermal Growth Factor, growth factor supplement (protein, UniProt P01133 23-1207, looked up)
Pro-epidermal growth factor: PQHWSCPEGTLAGNGNSTCVGPAPFLIFSHGNSIFRIDTEGTNYEQLVVDAGVSVIMDFHYNEKRIYWVDLERQLLQRVFLNGSRQERVCNIEKNVSGMAINWINEEVIWSNQQEGIITVTDMKGNNSHILLSALKYPANVAVDPVERFIFWSSEVAGSLYRADLDGVGVKALLETSEKITAVSLDVLDKRLFWIQYNREGSNSLICSCDYDGGSVHISKHPTQHNLFAMSLFGDRIFYSTWKMKTIWIANKHTGKDMVRINLHSSFVPLGELKVVHPLAQPKAEDDTWEPEQKLCKLRKGNCSSTVCGQDLQSHLCMCAEGYALSRDRKYCEDVNECAFWNHGCTLGCKNTPGSYYCTCPVGFVLLPDGKRCHQLVSCPRNVSECSHDCVLTSEGPLCFCPEGSVLERDGKTCSGCSSPDNGGCSQLCVPLSPVSWECDCFPGYDLQLDEKSCAASGPQPFLLFANSQDIRHMHFDGTDYGTLLSQQMGMVYALDHDPVENKIYFAHTALKWIERANMDGSQRERLIEEGVDVPEGLAVDWIGRRFYWTDRGKSLIGRSDLNGKRSKIITKENISQPRGIAVHPMAKRLFWTDTGINPRIESSSLQGLGRLVIASSDLIWPSGITIDFLTDKLYWCDAKQSVIEMANLDGSKRRRLTQNDVGHPFAVAVFEDYVWFSDWAMPSVMRVNKRTGKDRVRLQGSMLKPSSLVVVHPLAKPGADPCLYQNGGCEHICKKRLGTAWCSCREGFMKASDGKTCLALDGHQLLAGGEVDLKNQVTPLDILSKTRVSEDNITESQHMLVAEIMVSDQDDCAPVGCSMYARCISEGEDATCQCLKGFAGDGKLCSDIDECEMGVPVCPPASSKCINTEGGYVCRCSEGYQGDGIHCLDIDECQLGEHSCGENASCTNTEGGYTCMCAGRLSEPGLICPDSTPPPHLREDDHHYSVRNSDSECPLSHDGYCLHDGVCMYIEALDKYACNCVVGYIGERCQYRDLKWWELRHAGHGQQQKVIVVAVCVVVLVMLLLLSLWGAHYYRTQKLLSKNPKNPYEESSRDVRSRRPADTEDGMSSCPQPWFVVIKEHQDLKNGGQPVAGEDGQAADGSMQPTSWRQEPQLCGMGTEQGCWIPVSSDKGSCPQVMERSFHMPSYGTQTLEGGVEKPHSLLSANPLWQQRALDPPHQMELTQ
modifications: Pro-epidermal growth factor
notes: Epidermal Growth Factor, growth factor supplement
Regarding B1, the “effect on cell growth” value is given as “positive effect on cell growth”.
